Reference: the DeepSol protein solubility set

Experiment: soluble on expression in E. coli; label from the status in PepcDB or PDB records

Soluble on expression in E. coli, soluble:
GSHMGGWSIALHGGAGDIPFSLPPERRKPREEGLRHCLQIGVEALKAQKPPLDVVELVVRELENIEHFNAGIGSVLTNSGTVEMEASIMDGNTMKCGAVSGLSTVLNPISLARLVMDKTPHIYLAFQGAQDFAKQQGVETVDSSHLITAENVERLKLAIEANRVQVDYSQYNYPEPVKDDAEKELPLTNGDSQIG
MAHHHHHHMGCVNCKKAKRRKDHPTLEEAAARETERERWAAAEQGFAAQNLYTSVHAANSLPLTEREGATPLPATPGRLENVPQISAAAAAPGETENGRGWNSKKKSNSQATGKADNDSTAAALARVTRTAAPSESSRETPKGRRNKHQYRCHPGVSSWSDGSLPLSVDSVGSAKCPHSSSSSSSSSAQTYKSKKGAEDAKKHGSPGSITAAEIWPQENSDDSVAQGHLNSASHSQTATAWLHINGLTAAGTTSSTNARQTRQPKMYHRSSNVSSDSRSNATPPGMETKVYPSADALDDGPSDWGSTSHDVPAAIPAPNTSVESGGAAAEASSLPNRAPFEPYSDLGSRDVTDYLPPYEWAPRTLPVPSPLRACGPVDMAQWEDGENQFCGLAAAGTTARFQDPVVNVSAEGATTSNSAVAEGNYGASHPFALHTFYPRLPPAQWSSSSSDDTINGPEASAAAFDYPHLPVNAFIQKAHPHQQQPTYRAMYEGDASVRYSPAGYASHEATPRRAVPPSLVDVHVSEAVGYASPPLVNNAHSFYPSRALLPMHHSHAVPDSGSGKPMAYSHALPAMTTSAPQIYHDGNRNRSGNISIVSIGGGVHPHKPVSYLFDSSMDDWLQSRHAQPPQRQLYGESVDMW
MSLNKKDVIRTLERIAIYMELKGENPFKISAYRKAALALEQDERTLDEIEDPATLKGIGKGTAEVILDLKETGESSLMHELKESVPAGLIPLLQLPSLGGKKIAKLYQELGVIDLATLKEACEQGNVRELAGFGKKSEEKILAAIAELSNKPERFPIAFVLPIAVEIEAQLKEMDSIHRFSRAGSLRRMRETVKDLDYIISTDDPEAVREQLLQLKHMGKTIASGDTKVSVELEYDYPISVDFRLVKDEAFATTLHHFTGSKEHNVKMRQLAKARGEKISEYGVENTETGDVKTFADESAFFKHFGLTYIPPEAREDQGEVELFKEAHALVTLEDIRADLHMHTTWSDGAHSIEEMAEAARQRGYEYIAITDHSKFLRVANGLSEERLKEQHAKIRELNERYDDFTIFTGIEMDILPDGTLDYEDPILAEVDFVIASIHSSFSQPREKIMDRLKTALVNHHVDLIAHPTGRLIGRREGYDVDVDMLIELAKETNTALELNANPNRLDLNSEALKKAQEQGVVMAINTDSHTKETFSYMEYGVGVARKGLIRPETVINTWPLERFCAFLRRHQPEGHHHHHH
MDERIQALRKEVDRVNREILRLLSERGRLVQEIGRLQTELGLPHYDPKREEEMLAYLTAENPGPFPDETIRKLFKEIFKASLDLEERQDQKKFLYSKRHKPEPTRVRVKDVVFGEKPLLIAGPCSIESEEQIMATARFLAARGVRVLRGGAFKPRTSPYGFQGLGVEGLKLGRKAADAFGMVFVTEVMDTRDVEVVAEYADILQIGARNMQNFALLKEVGKARRPVLLKRGLSATMEEWFYAAEYILAQGNEQVILAERGIRTFERWTRNTLDLSAVALAKQETHLPVVVDVTHAAGRTDLLAPLARAALAVGADGVHVEVHPNPKVALSDNQQQMDFAQFDRFLEAIRDLLQAP
SITKPQNKSAKLVDGELLVKASVESFGLEDEKYWFLVCCELSNGKTRQLKRYYQDFYDLQVQLLDAFPAEAGKLRDAGGQWSKRIMPYIPGPVPYVTNSITKKRKEDLNIYVADLVNLPDYISRSEMVHSLFVVLNNGFDREFERDENGSHHHHHH
MSLTTGAAVAFVDTLHDAAVRDLGWLLASPSMLTAVPGAPLARPWPDATGQAAVEAWLAALDAQPGPLHRALDGFRPTRLGRYAECLLEYFLTHGPSLRLVAANLPLRSNGRTLGEVDFLVDTPDGRRLHWEMAVKCYLCAPVRDGASLADFVGPNLVDRFDRKRSRLLDHQLRMGEHDGFARLGYGAPADAQMFIKGWLFHPYGAPVPPVSVEIAPDHPRGFWLTHGQWPAWAAAQRDGAAWSVLPRLAWLAPRRAVAGAGVEPEPLASALELPAVLATRQTPDMIAIHEKGGDGTWRETARGFVVPDDWPARAQAFAAQDHEGHHHHHH
MKYEVVITSGNSNQAPIGAFFKGDFVTLHLYGGSHTFENLQKDGFYILNTCSPYLIAKSVLDDAGDYEYLDNDGIKIPYLKDSYKIELIEIKSRKIVETKNEFGSSKLMIVEGKPIFEKILNCNTSAYNRADGAVVEMAVLYSRKNMISKEEINDEITRLMKIIKKVGSKNHIELAKKLGV

Soluble on expression in E. coli, not soluble:
MGSDKIHHHHHHMRANRIGYVYSNKRFAGELLEFNTLEGYEYSFTYAASYIASGLPQIGYKLPITHEPYRRNYLPPFFANLMSEGWVRRHQARIARLDQDDKFGLLLGNGAELIGPVSVFTEYRGDNISAAIEVIAVPMKSLKGYQIDFPRCEFNEVAMESLGGVSISGVQPKMFLTYAEGNPKTLTNAVGMGPYIVKPSPNDFPELAENEFMVMQLCKAVGFNVAEHHLVPFSCGQLAYVTARFDLDRETGRRHEFIEDLASALNVAPGNKSSDTLSYEKAIKEAYQLSGGHVQLLKDGFLQVLMAYIVGNNDLHLKNISLSRASDSNRASGYTPIYDMVSVAPYRQYDNSGELSIWLLESEVERGFSTSSYEHYGYYTGHDFITFAEAIGLGERAGKVLMNDLGKKVAKARDKVIANAPGSEQLKQIISERITARLSTLTRPALR
MNQEFFMLSQAMVEHLNEQINLEFFSSNLYLQMSAWCEDKGFDGAAEFLRAHAVEEMQHMQRLFTYVSETGALPILGAIAAPRHDFASLGEVFRETYQHEQKITQQINKLAHVAFTSQDYSTFNFLQWYVAEQHEEEKLFKGILDKLELVGEDGKALFFIDKDLAALAKKGSSSVMDAPAE
MNQILNKLQHIKPIEIIIVADDRMSAIQSIPTFVECNVVVIEEKNKWKAPVHGAKVANGDVVLFLDGEDVIFSVELERFIEPLLKKEQDVILNNIDSVCFEKMRVEWPSIAMVYRKIVNDVLGRMDLKYDSMLSMPYAITKKAIKDIGYDILQNPILSQVTLIEKGWPLHSSSAITNTSLNNITSNNTSFYKNELTKLEVCEIKENVKALESWLQRKDDRGNYTDGGRKREVIEQLKKQKNYSLFHKGWGMNSSIYNGKQLSIIIPAQNEEATIKEVILEARKIEPKEIIVVINGSTDQTEAIAKQLGATVIVYEEALGHDVGRAIGAQEATGDILLFIDADFAIPAKDLHPLTKAVVDGVDIALNDLNLNLRFPLYIVNLYKYMLNIACNRKDLGVGSTIAVPHAISRKCLEGIGWDTLHTSCVAQVKAILEGYKVECVHFVDVMKPNRIRPQEHFATIGHPPAVLRITGDHLEGLSYLLKHRDFKDLF
SKLYDINNEIFEDLGAEKRELIQPNDVPQLLKDAIVSVEDRRFYKHIGVDPIRIIGSALSNVKNGGLQGGSTLTQQLIKLSYFSTKESDQTLKRKAQEAWMAVRLEREKSKEEILTYYINKVYMANGFYGMETAAENYYGKHLSELDLPQTALLAGMPQAPNSYDPYTKP
MSGLSMRNPERRIETNPFDVDAWNLLLREHQSRPIDQERDFYESLVKQFPNSGRYWKAYIEHELRSKNFENVEKLFSRCLVSVLNIDLWKCYIHYVFETKGQRDQYREEMAKAYDFALEKVGMDVQAYSIFTEYIAFLKKVPAVGQYAENQRITAVRKIYQKALATPMHNLELIWNDYCTYEKAINITLAEKLIAERGKEYQNARRVEKDLQQMTRGLNRQAVSVPPKGTATEFKQVELWKNLIAWEKTNPLQTEEYGQHARRVVYTYEQSLLCLGYYPDIWYEAAMFLQEASHTLDEKGDVKMAQVLKLETISLYERAITGLMKESKLLYFAYADFQEEHKQFEAVKNIYDRLLGIEHINPTLTYVQLMRFIRRSEGPNNARLVFKRAREDKRTGYQVFVAAALLEYNCMKDKEVAIRVFKLGLKKYENEPEFGLAYADFLSNLNEDNNTRVVFERILTSSKLPADKSIRIWDRFLDFESCVGDLASILKVEKRRKTAYEEAQKDQTMNHSMLVIDRYKFMDLMPCSGEQLKLIGYNALKGTESIAGPSFVGSKNVPTHGPQAASAIMGGAGGHADVARYGFPRPDISQMIPFKPRVNCTASFHPVPGGVFPPPQSVAHLMSLLPPPTCFIGPFINVELLCNMINNMQLPNVSYPKSEDNMLGPMLEQDVKKDMYQLLATTSDPSAVVRSSALSDLKRKRGDSDDEEDYSHLGAVIGSLGSRDAYKRRMNKKNE
MAFSMLFTGHAECVKFVKKFNLPLLVTGGGGYTKENVARCWTVETGILLDTELPNEISENDYIKYFAPDFSLKIPGGHIENLNTKSYISSIKVQILENLRYIQHAPSVQMQEVPPDFYIPDFDEDEQNPDVRVDQRSRDKQIQRDDEYFDGDNDNDAS
MKRLWKKVGSGVKNANYLKKSVEEVAKIEKGETKVVPPKYPTEKSREVSEEIKKELAMKNESLVENMNKMYIKSTDPVERWTSTKDLPTRESEFLHRNDPIWEYGFYEPPVERIPKDKLMFKEALEYLRFRQELLSDSSSPAQKKQAAEFVADHVVTSRVNAETLDDIYEYFRPFERKDKQKVVNRHALAALQDHVQGNSDERRILDEAKDVGKKIRHISNNTKFLDEYQRLEDEEKDKVREAIAQLRQEEHERLNKRLGQLGEIEKTAQEAMKKAVEEKKEK
MGSDKIHHHHHHMERLAQPSRFLQRKLFEVNLLKPVTVEKEAPIGEIRRILRDTGSRIVLVVNGEGRLEGVIYRSSVILVTSRKSEAKALDIMEEPAVVLKPSYSLEEAVFSMLKFDEWYAPVVNDANRLVGVLGLETPIRLLLEAGFYRGYTASDAMTRDVEYVLEGDSLTRVWEIMVERRYAGVPVVDQRMVVRGIVTQYDLIRKGYTRLGLESEAPPHRVRVESVMTRSVIYVAESDNLEDVARIMLDRGVGRVPVVKSRDSRVLTGIIDREDLVRLYFKSRGRASL
MGSDKIHHHHHHMLRECDYSQALLEQVNQAISDKTPLVIQGSNSKAFLGRPVTGQTLDVRCHRGIVNYDPTELVITARVGTPLVTIEAALESAGQMLPCEPPHYGEEATWGGMVACGLAGPRRPWSGSVRDFVLGTRIITGAGKHLRFGGEVMKNVAGYDLSRLMVGSYGCLGVLTEISMKVLPRPRASLSLRREISLQEAMSEIAEWQLQPLPISGLCYFDNALWIRLEGGEGSVKAARELLGGEEVAGQFWQQLREQQLPFFSLPGTLWRISLPSDAPMMDLPGEQLIDWGGALRWLKSTAEDNQIHRIARNAGGHATRFSAGDGGFAPLSAPLFRYHQQLKQQLDPCGVFNPGRMYAEL
AKLLPKLQKQNLSDSAQQIAQERGLGNSSQRKVYLPIIRAYRVGPELIDWTDGKNLRELGIYRQTGCYIERIRRNGILAHPDGDAILQEGDEIALVGFPDSHARLDPSFRNGKEVFDRNLLDLRIVEEEIVVKSDAIAGKRLSDLNLSEFGCFLNRVVRAQIEMPMDLDIVLAKGDVLQVSGEKSRVHGLAEKIGFISIHSQMAD
MPEQAQTRRVFLFLQGPHGPFFHALGRMLRAAGAEVWRVGFNAGDRAFWFHPPSFIPYKGAHEDWPQAFADLLERKGVTDIVLYGDTRPIHASAVAAAKARGLGVHVFEEGYLRPYWVTYEREGSNGNSRLMDMTLEEMRAALALSDLETPLPPSHWGDMRQHIFYGALYHWFVMFTNQGYRRFKPHRDLPVTKEFQLYLQRLLLMPALAVERMLATARIRNGGFPYHLALLQLEHDSSFQQHSPFSTMTDFLEEIFDGFARGAPQHHHLVVKAHPLENGRVPLRREVRRLARQHGLEGRVHYVRGGKLAQLLNDARSAVTVNSTAGQQVLWRGIPLKVFGRAVYDKPEFVSTQTASEFFAAANRPDARAYKEYRRYLLETSQLPGGFYSRKGRRQLLRQVVDMMLSPDDPYDALKSGKAAPRQQLRLVN
MPKRGLDVSSCEIFRFYKLITTKSLIEPVSMIVPRRSESYQEDIYPPTAAAQPSLTAHEWLSGMNRGKGGWEQAARLGNWSPGGPK
